“And” between values parts separate entries of the source, which are not always exact repeats. Equal entries are not always repeated.
Molecular target: unliganded V1/V2 loop-deleted envelope glycoproteins
Assay: ELISA

**Q.** For “C34-Ig fusion protein (from UniProt P04578 628-661) (Fc fusion)”, which C34-Ig binding without sCD4 as percent of that with sCD4 is on record?
**A.** 20% and 45%
